Results taken from article PMC6698736.

Experiments:
[1] = biological target: KacA, wild type, purified alone (Klebsiella pneumoniae); experiment: SEC-MALS
[2] = biological target: KacA (coexpressed in KacAT);KacT (Klebsiella pneumoniae;Klebsiella …, UniProt A0A0H3GLZ1;A0A0H3GMP0 1-88;1-177, |); experiment: X-ray crystallography

KacT^Y145F (enzyme)
N, peak α (KacT per KacA (8:8)) [1]: 1 | N, peak β (KacT per KacA (2:4)) [1]: 0.5

KacA, wild type, purified alone (natural protein)
stoichiometry N [1]: 2

B1: 27-bp kacAT operator duplex (dsDNA)
DNA 1: AAATGTACGGTTATTAACCGTACATGA
DNA 2: TCATGTACGGTTAATAACCGTACATTT
binding result [2]: binds
